Test results taken from publication PMC8303780, “Mutational Analysis of Redβ Single Strand Annealing Protein: Roles of the 14 Lysine Residues in DNA Binding and Recombination In Vivo”.
Substitutions are numbered along the chain they refer to.

T1: Redβ K61A K61A (bacteriophage λ) (UniProt P03698)
T1 sequence: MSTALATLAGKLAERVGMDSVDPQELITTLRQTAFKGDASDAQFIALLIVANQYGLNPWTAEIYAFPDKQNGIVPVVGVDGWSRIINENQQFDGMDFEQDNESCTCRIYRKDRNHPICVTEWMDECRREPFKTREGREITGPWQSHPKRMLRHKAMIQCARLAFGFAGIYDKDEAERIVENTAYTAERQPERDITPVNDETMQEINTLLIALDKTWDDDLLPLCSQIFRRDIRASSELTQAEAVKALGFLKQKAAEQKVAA

T2: Redβ K148A K148A (bacteriophage λ) (UniProt P03698)
T2 sequence: T1 sequence with A61K, K148A

T3: Redβ K11A K11A (bacteriophage λ) (UniProt P03698)
T3 sequence: T1 sequence with K11A, A61K

T4: Redβ K258A K258A (bacteriophage λ) (UniProt P03698)
T4 sequence: T1 sequence with A61K, K258A

T5: Redβ K36A K36A (bacteriophage λ) (UniProt P03698)
T5 sequence: T1 sequence with K36A, A61K

T6: Redβ K245A K245A (bacteriophage λ) (UniProt P03698)
T6 sequence: T1 sequence with A61K, K245A

T7: Redβ WT (bacteriophage λ, UniProt P03698 1-261)
T7 sequence: T1 sequence with A61K

T8: Redβ K154A (bacteriophage λ, UniProt P03698 1-261, K154A)
T8 sequence: T1 sequence with A61K, K154A

T9: Redβ K36A (bacteriophage λ, UniProt P03698 1-261, K36A)
T9 sequence: T1 sequence with K36A, A61K

B1: annealed duplex of Cy3 and Cy5 50-mers, strands added sequentially (dsDNA)
DNA 1: GCGGATGGCTTAGAGCAGAATCGCCCTGCATAGCTCGATTTTTGCGGATG
DNA 2: CCATCCGCAAAAATCGAGCTATGCAGGGCGATTCTGCTCTAAGCCATCCG

Legend:
[1] = molecular target: T1, Redβ K61A K61A (bacteriophage λ); experiment: fluorescence anisotropy; details: Anisotropy: 50 mM Tris-HCl pH 7.5, 1 mM DTT, 0.1 mg/mL BSA, 10 nM FAM48, 23 °C (Kd per monomer), gel assay: 10 µM Redβ, 50 µM nt of each oligo, PBS, 37 °C
[2] = molecular target: T2, Redβ K148A K148A (bacteriophage λ); experiment: fluorescence anisotropy; details: Anisotropy: 50 mM Tris-HCl pH 7.5, 1 mM DTT, 0.1 mg/mL BSA, 10 nM FAM48, 23 °C (Kd per monomer), gel assay: 10 µM Redβ, 50 µM nt of each oligo, PBS, 37 °C
[3] = molecular target: T3, Redβ K11A K11A (bacteriophage λ); experiment: fluorescence anisotropy; details: Anisotropy: 50 mM Tris-HCl pH 7.5, 1 mM DTT, 0.1 mg/mL BSA, 10 nM FAM48, 23 °C (Kd per monomer), gel assay: 10 µM Redβ, 50 µM nt of each oligo, PBS, 37 °C
[4] = molecular target: T4, Redβ K258A K258A (bacteriophage λ); experiment: fluorescence anisotropy; details: Anisotropy: 50 mM Tris-HCl pH 7.5, 1 mM DTT, 0.1 mg/mL BSA, 10 nM FAM48, 23 °C (Kd per monomer), gel assay: 10 µM Redβ, 50 µM nt of each oligo, PBS, 37 °C
[5] = molecular target: T5, Redβ K36A K36A (bacteriophage λ); experiment: fluorescence anisotropy; details: Anisotropy: 50 mM Tris-HCl pH 7.5, 1 mM DTT, 0.1 mg/mL BSA, 10 nM FAM48, 23 °C (Kd per monomer), gel assay: 10 µM Redβ, 50 µM nt of each oligo, PBS, 37 °C
[6] = molecular target: T6, Redβ K245A K245A (bacteriophage λ); experiment: fluorescence anisotropy; details: Anisotropy: 50 mM Tris-HCl pH 7.5, 1 mM DTT, 0.1 mg/mL BSA, 10 nM FAM48, 23 °C (Kd per monomer), gel assay: 10 µM Redβ, 50 µM nt of each oligo, PBS, 37 °C
[7] = molecular target: T7, Redβ WT; experiment: EMSA; strands added sequentially; Anisotropy: 50 mM Tris-HCl pH 7.5, 1 mM DTT, 0.1 mg/mL BSA, 10 nM FAM48, 23 °C (Kd per monomer); gel assay: 10 µM Redβ, 50 µM nt of each oligo, PBS, 37 °C, 1% agarose at 22 °C; details: protein: recombinant; tags: 6xHis removed by thrombin; residual N-terminal GSH; label: 5'-Cy3 and 5'-Cy5; complementary 50-mers; annealed by protein
[8] = molecular target: T8, Redβ K154A; experiment: as above; details: protein: recombinant; tags: 6xHis removed by thrombin; residual N-terminal GSH; label: 5'-Cy3 and 5'-Cy5; complementary 50-mers; annealed by protein
[9] = molecular target: T9, Redβ K36A; experiment: as above; details: protein: recombinant; tags: 6xHis removed by thrombin; residual N-terminal GSH; label: 5'-Cy3 and 5'-Cy5; complementary 50-mers; annealed by protein

Row | Molecule | Kd [1] [nM] | Kd [2] [nM] | Kd [3] [nM] | Kd [4] [nM] | Kd [5] [nM] | Kd [6] [nM] | binding result [7] | binding result [8] | binding result [9]
1 | FAM48 48-mer ssDNA | 390 | 14100 | 230 | 110 | 530 | 160 |  |  | 
2 | B1 |  |  |  |  |  |  | binds | no binding | binds
